Measured values as given in patent US20150344570A1 (published 2015).

T1: FcγRIIb extracellular domain with C-terminal His tag (human, UniProt P31994 43-217)
T1 construct: extracellular domain; Soluble receptor expressed in FreeStyle293 cells, used as analyte in Biacore; also called FcgRIIb; 2b
T1 sequence (looked up): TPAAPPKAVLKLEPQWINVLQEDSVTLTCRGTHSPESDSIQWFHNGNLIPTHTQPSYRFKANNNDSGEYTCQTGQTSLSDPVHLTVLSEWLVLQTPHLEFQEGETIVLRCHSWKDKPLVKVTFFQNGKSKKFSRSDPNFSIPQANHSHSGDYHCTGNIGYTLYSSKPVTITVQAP


Key:
[1] = target: T2, FcγRIIIa extracellular domain with C-terminal His tag (human, UniProt P08637 17-208); test: SPR (Biacore); He/Con_3a divided by He/Con_2b (FcγRIIIa against FcγRIIb)
T2 construct: extracellular domain; also called FcgRIIIa; 3a
T2 sequence (P08637 17-208): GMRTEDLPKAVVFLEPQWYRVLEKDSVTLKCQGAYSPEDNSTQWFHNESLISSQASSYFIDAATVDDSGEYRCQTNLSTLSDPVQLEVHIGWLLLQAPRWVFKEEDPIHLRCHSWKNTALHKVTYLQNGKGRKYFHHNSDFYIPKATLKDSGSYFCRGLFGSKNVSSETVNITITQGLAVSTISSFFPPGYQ
Description: (§1) The heterodimerized antibodies He Abs in which one of the H chains was introduced with an alteration were assayed for their binding activities to each activating FcγR and inhibitory FcγR according to the method described in Example 4. […] The activating FcγRs in FIGS. 26, 27, 28, and 29 are FcγRIa, FcγRIIa (R), FcγRIIa (H), and FcγRIIIa, respectively.
(§2) Analysis of interaction between objective antibody and the FcγR was carried out using Biacore T100 (GE Healthcare). HBS-EP+ (GE Healthcare) was used as the running buffer, and the measurement temperature was set to 25° C. Chips produced by immobilizing the antigen peptide by the amine coupling method to a Series S Sencor Chip CM5 (GE Healthcare), or alternatively, chips produced by allowing preliminarily biotinylated antigen peptides to interact with and immobilize onto a Series S Sensor Chip SA (certified) (GE Healthcare) were used. Antibodies of interest were captured onto an antigen peptide-immobilized chip, and allowed to interact to each FcγR diluted with running buffer. To regenerate and repeatedly use the chip, the antibodies captured on the chip were washed off by reacting 10 mM glycine-HCl, pH 1.5.

[2] = target: T1, FcγRIIb extracellular domain with …; test: SPR (Biacore), antibody captured on antigen peptide chip, FcγR as analyte; GpH7-A5/GpH7-B3/GpL16-k0 = 100
Description: as §1, §2

[3] = target: T2, FcγRIIIa extracellular domain with …; test: as above
Description: as §1, §2

Binder	He_3a/2b (IIIa/IIb) [1] [ratio]	He/Con_2b (relative binding activity) [2]	He/Con_3a (relative binding activity) [3]
GpH7-A5/GpH7-B3 variant A330_20W/GpL16-k0 (antibody, human IgG1, kappa, Heterodimerized anti-glypican-3 IgG1; mutation in the GpH7-B3 chain only; also called He Ab) heavy 1: not shown heavy 2: not shown light: DIVMTQSPLSLPVTPGEPASISCQASESLVHSNRNTYLHWYLQKPGQSPQLLIYKVSNRFSGVPDRFSGSGSGTDFTLKISRVEAEDVGVYYCSQNTHVPPTFGQGTKVEIERTVAAPSVFIFPPSDEQLKSGTASVVCLLNNFYPREAKVQWKVDNALQSGNSQESVTEQDSKDSTYSLSSTLTLSKADYEKHKVYACEVTHQGLSSPVTKSFNRGEC	1.37	76.1 % of control	104 % of control
GpH7-A5/GpH7-B3 variant I332_12R/GpL16-k0 (antibody, human IgG1, kappa, Heterodimerized anti-glypican-3 IgG1; mutation in the GpH7-B3 chain only; also called He Ab) heavy 1: not shown heavy 2: not shown light: DIVMTQSPLSLPVTPGEPASISCQASESLVHSNRNTYLHWYLQKPGQSPQLLIYKVSNRFSGVPDRFSGSGSGTDFTLKISRVEAEDVGVYYCSQNTHVPPTFGQGTKVEIERTVAAPSVFIFPPSDEQLKSGTASVVCLLNNFYPREAKVQWKVDNALQSGNSQESVTEQDSKDSTYSLSSTLTLSKADYEKHKVYACEVTHQGLSSPVTKSFNRGEC	1.55	48.9 % of control	75.9 % of control
GpH7-A5/GpH7-B3 variant I332_01G/GpL16-k0 (antibody, human IgG1, kappa, Heterodimerized anti-glypican-3 IgG1; mutation in the GpH7-B3 chain only; also called He Ab) heavy 1: not shown heavy 2: not shown light: DIVMTQSPLSLPVTPGEPASISCQASESLVHSNRNTYLHWYLQKPGQSPQLLIYKVSNRFSGVPDRFSGSGSGTDFTLKISRVEAEDVGVYYCSQNTHVPPTFGQGTKVEIERTVAAPSVFIFPPSDEQLKSGTASVVCLLNNFYPREAKVQWKVDNALQSGNSQESVTEQDSKDSTYSLSSTLTLSKADYEKHKVYACEVTHQGLSSPVTKSFNRGEC	1.27	87.1 % of control	111 % of control
GpH7-A5/GpH7-B3 variant E333_01G/GpL16-k0 (antibody, human IgG1, kappa, Heterodimerized anti-glypican-3 IgG1; mutation in the GpH7-B3 chain only; also called He Ab) heavy 1: not shown heavy 2: not shown light: DIVMTQSPLSLPVTPGEPASISCQASESLVHSNRNTYLHWYLQKPGQSPQLLIYKVSNRFSGVPDRFSGSGSGTDFTLKISRVEAEDVGVYYCSQNTHVPPTFGQGTKVEIERTVAAPSVFIFPPSDEQLKSGTASVVCLLNNFYPREAKVQWKVDNALQSGNSQESVTEQDSKDSTYSLSSTLTLSKADYEKHKVYACEVTHQGLSSPVTKSFNRGEC	1.21	81.4 % of control	98.2 % of control
GpH7-A5/GpH7-B3 variant E333_13S/GpL16-k0 (antibody, human IgG1, kappa, Heterodimerized anti-glypican-3 IgG1; mutation in the GpH7-B3 chain only; also called He Ab) heavy 1: not shown heavy 2: not shown light: DIVMTQSPLSLPVTPGEPASISCQASESLVHSNRNTYLHWYLQKPGQSPQLLIYKVSNRFSGVPDRFSGSGSGTDFTLKISRVEAEDVGVYYCSQNTHVPPTFGQGTKVEIERTVAAPSVFIFPPSDEQLKSGTASVVCLLNNFYPREAKVQWKVDNALQSGNSQESVTEQDSKDSTYSLSSTLTLSKADYEKHKVYACEVTHQGLSSPVTKSFNRGEC	1.26	81.8 % of control	103 % of control
GpH7-A5/GpH7-B3 variant I332_10E/GpL16-k0 (antibody, human IgG1, kappa, Heterodimerized anti-glypican-3 IgG1; mutation in the GpH7-B3 chain only; also called He Ab) heavy 1: not shown heavy 2: not shown light: DIVMTQSPLSLPVTPGEPASISCQASESLVHSNRNTYLHWYLQKPGQSPQLLIYKVSNRFSGVPDRFSGSGSGTDFTLKISRVEAEDVGVYYCSQNTHVPPTFGQGTKVEIERTVAAPSVFIFPPSDEQLKSGTASVVCLLNNFYPREAKVQWKVDNALQSGNSQESVTEQDSKDSTYSLSSTLTLSKADYEKHKVYACEVTHQGLSSPVTKSFNRGEC	1.63	142 % of control	233 % of control
GpH7-A5/GpH7-B3 variant E333_02A/GpL16-k0 (antibody, human IgG1, kappa, Heterodimerized anti-glypican-3 IgG1; mutation in the GpH7-B3 chain only; also called He Ab) heavy 1: not shown heavy 2: not shown light: DIVMTQSPLSLPVTPGEPASISCQASESLVHSNRNTYLHWYLQKPGQSPQLLIYKVSNRFSGVPDRFSGSGSGTDFTLKISRVEAEDVGVYYCSQNTHVPPTFGQGTKVEIERTVAAPSVFIFPPSDEQLKSGTASVVCLLNNFYPREAKVQWKVDNALQSGNSQESVTEQDSKDSTYSLSSTLTLSKADYEKHKVYACEVTHQGLSSPVTKSFNRGEC	1.26	83.8 % of control	105 % of control
GpH7-A5/GpH7-B3 variant I332_09D/GpL16-k0 (antibody, human IgG1, kappa, Heterodimerized anti-glypican-3 IgG1; mutation in the GpH7-B3 chain only; also called He Ab) heavy 1: not shown heavy 2: not shown light: DIVMTQSPLSLPVTPGEPASISCQASESLVHSNRNTYLHWYLQKPGQSPQLLIYKVSNRFSGVPDRFSGSGSGTDFTLKISRVEAEDVGVYYCSQNTHVPPTFGQGTKVEIERTVAAPSVFIFPPSDEQLKSGTASVVCLLNNFYPREAKVQWKVDNALQSGNSQESVTEQDSKDSTYSLSSTLTLSKADYEKHKVYACEVTHQGLSSPVTKSFNRGEC	1.41	147 % of control	207 % of control
GpH7-A5/GpH7-B3 variant K334_01G/GpL16-k0 (antibody, human IgG1, kappa, Heterodimerized anti-glypican-3 IgG1; mutation in the GpH7-B3 chain only; also called He Ab) heavy 1: not shown heavy 2: not shown light: DIVMTQSPLSLPVTPGEPASISCQASESLVHSNRNTYLHWYLQKPGQSPQLLIYKVSNRFSGVPDRFSGSGSGTDFTLKISRVEAEDVGVYYCSQNTHVPPTFGQGTKVEIERTVAAPSVFIFPPSDEQLKSGTASVVCLLNNFYPREAKVQWKVDNALQSGNSQESVTEQDSKDSTYSLSSTLTLSKADYEKHKVYACEVTHQGLSSPVTKSFNRGEC	1.31	92.5 % of control	121 % of control
GpH7-A5/GpH7-B3 variant E333_16H/GpL16-k0 (antibody, human IgG1, kappa, Heterodimerized anti-glypican-3 IgG1; mutation in the GpH7-B3 chain only; also called He Ab) heavy 1: not shown heavy 2: not shown light: DIVMTQSPLSLPVTPGEPASISCQASESLVHSNRNTYLHWYLQKPGQSPQLLIYKVSNRFSGVPDRFSGSGSGTDFTLKISRVEAEDVGVYYCSQNTHVPPTFGQGTKVEIERTVAAPSVFIFPPSDEQLKSGTASVVCLLNNFYPREAKVQWKVDNALQSGNSQESVTEQDSKDSTYSLSSTLTLSKADYEKHKVYACEVTHQGLSSPVTKSFNRGEC	1.24	83.3 % of control	103 % of control

The next lines start with the values.

He_3a/2b (IIIa/IIb) [1] [ratio]	He/Con_2b (relative binding activity) [2]	He/Con_3a (relative binding activity) [3]	Binder
1.33	109 % of control	144 % of control	GpH7-A5/GpH7-B3 variant K334_06M/GpL16-k0 (antibody, human IgG1, kappa, Heterodimerized anti-glypican-3 IgG1; mutation in the GpH7-B3 chain only; also called He Ab) heavy 1: not shown heavy 2: not shown light: DIVMTQSPLSLPVTPGEPASISCQASESLVHSNRNTYLHWYLQKPGQSPQLLIYKVSNRFSGVPDRFSGSGSGTDFTLKISRVEAEDVGVYYCSQNTHVPPTFGQGTKVEIERTVAAPSVFIFPPSDEQLKSGTASVVCLLNNFYPREAKVQWKVDNALQSGNSQESVTEQDSKDSTYSLSSTLTLSKADYEKHKVYACEVTHQGLSSPVTKSFNRGEC
1.37	108 % of control	147 % of control	GpH7-A5/GpH7-B3 variant K334_02A/GpL16-k0 (antibody, human IgG1, kappa, Heterodimerized anti-glypican-3 IgG1; mutation in the GpH7-B3 chain only; also called He Ab) heavy 1: not shown heavy 2: not shown light: DIVMTQSPLSLPVTPGEPASISCQASESLVHSNRNTYLHWYLQKPGQSPQLLIYKVSNRFSGVPDRFSGSGSGTDFTLKISRVEAEDVGVYYCSQNTHVPPTFGQGTKVEIERTVAAPSVFIFPPSDEQLKSGTASVVCLLNNFYPREAKVQWKVDNALQSGNSQESVTEQDSKDSTYSLSSTLTLSKADYEKHKVYACEVTHQGLSSPVTKSFNRGEC
1.35	106 % of control	143 % of control	GpH7-A5/GpH7-B3 variant K334_08L/GpL16-k0 (antibody, human IgG1, kappa, Heterodimerized anti-glypican-3 IgG1; mutation in the GpH7-B3 chain only; also called He Ab) heavy 1: not shown heavy 2: not shown light: DIVMTQSPLSLPVTPGEPASISCQASESLVHSNRNTYLHWYLQKPGQSPQLLIYKVSNRFSGVPDRFSGSGSGTDFTLKISRVEAEDVGVYYCSQNTHVPPTFGQGTKVEIERTVAAPSVFIFPPSDEQLKSGTASVVCLLNNFYPREAKVQWKVDNALQSGNSQESVTEQDSKDSTYSLSSTLTLSKADYEKHKVYACEVTHQGLSSPVTKSFNRGEC
1.27	119 % of control	151 % of control	GpH7-A5/GpH7-B3 variant K334_07I/GpL16-k0 (antibody, human IgG1, kappa, Heterodimerized anti-glypican-3 IgG1; mutation in the GpH7-B3 chain only; also called He Ab) heavy 1: not shown heavy 2: not shown light: DIVMTQSPLSLPVTPGEPASISCQASESLVHSNRNTYLHWYLQKPGQSPQLLIYKVSNRFSGVPDRFSGSGSGTDFTLKISRVEAEDVGVYYCSQNTHVPPTFGQGTKVEIERTVAAPSVFIFPPSDEQLKSGTASVVCLLNNFYPREAKVQWKVDNALQSGNSQESVTEQDSKDSTYSLSSTLTLSKADYEKHKVYACEVTHQGLSSPVTKSFNRGEC
1.33	111 % of control	148 % of control	GpH7-A5/GpH7-B3 variant K334_04F/GpL16-k0 (antibody, human IgG1, kappa, Heterodimerized anti-glypican-3 IgG1; mutation in the GpH7-B3 chain only; also called He Ab) heavy 1: not shown heavy 2: not shown light: DIVMTQSPLSLPVTPGEPASISCQASESLVHSNRNTYLHWYLQKPGQSPQLLIYKVSNRFSGVPDRFSGSGSGTDFTLKISRVEAEDVGVYYCSQNTHVPPTFGQGTKVEIERTVAAPSVFIFPPSDEQLKSGTASVVCLLNNFYPREAKVQWKVDNALQSGNSQESVTEQDSKDSTYSLSSTLTLSKADYEKHKVYACEVTHQGLSSPVTKSFNRGEC
1.27	105 % of control	134 % of control	GpH7-A5/GpH7-B3 variant K334_05P/GpL16-k0 (antibody, human IgG1, kappa, Heterodimerized anti-glypican-3 IgG1; mutation in the GpH7-B3 chain only; also called He Ab) heavy 1: not shown heavy 2: not shown light: DIVMTQSPLSLPVTPGEPASISCQASESLVHSNRNTYLHWYLQKPGQSPQLLIYKVSNRFSGVPDRFSGSGSGTDFTLKISRVEAEDVGVYYCSQNTHVPPTFGQGTKVEIERTVAAPSVFIFPPSDEQLKSGTASVVCLLNNFYPREAKVQWKVDNALQSGNSQESVTEQDSKDSTYSLSSTLTLSKADYEKHKVYACEVTHQGLSSPVTKSFNRGEC
